According to publication PMC4624055 (The Journal of allergy and clinical immunology, 2015):

B1: Asc s 13 (enzyme, Ascaris suum, UniProt P46436 1-206, looked up)
chain: MPQYKLTYFDIRGLGEGARLIFHQAGVKFEDNRLKREDWPALKPKTPFGQLPLLEVDGEVLAQSAAIYRYLGRQFGLAGKTPMEEAQVDSIFDQFKDFMAELRPCFRVLAGFEEGDKEKVLKEVAVPARDKHLPLLEKFLAKSGSEYMVGKSVTWADLVITDSLASWESLIPDFLSGHLQLKKYIEHVRELPNIKKWIAERPKTPY
B2: Bla g 5 (enzyme, Blattella germanica, UniProt O18598 1-204, looked up)
chain: MAPSYKLTYCPVKALGEPIRFLLSYGEKDFEDYRFQEGDWPNLKPSMPFGKTPVLEIDGKQTHQSVAISRYLGKQFGLSGKDDWENLEIDMIVDTISDFRAAIANYHYDADENSKQKKWDPLKKETIPYYTKKFDEVVKANGGYLAAGKLTWADFYFVAILDYLNHMAKEDLVANQPNLKALREKVLGLPAIKAWVAKRPPTDL

Target: the molecule itself
Assay: crystal structure

Protein	stoichiometry N
B1	2
B2	2
